The source of these data is PMC5419745 (eLife, 2017).

Some targets named below: Hsa ETS-2 PNT (human) (UniProt P15036); Hsa p53TAD (human) (UniProt P04637); 1R CID; Fish/Tetrapod NCOA3 CID; 1R CID S1078Q; 1R CID S1058N; 1R CID G1080S.
Common to all, as to test: ITC; iTC200, 25°C, 20 mM sodium phosphate, pH 7.4, 150 mM NaCl; both partners dialysed against the same buffer
The target in test [1] is Hsa NCOA3 CID (ACTR) (human) (UniProt Q9Y6Q9).
The target of test [2] is Hsa NCOA1 CID (SRC1) (human).
Test [3] addresses Hsa NCOA2 CID (TIF2) (human).
A further test concerns the target T1, Hsa p53TAD (human, UniProt P04637 1-61).
T1 construct: source: expressed and purified as previously described (Dogan et al., 2015)
The conditions noted are these: both partners purified.

A further test deals with T2, Hsa ETS-2 PNT (human, UniProt P15036 85-170).
T2 construct: pointed (PNT) domain of human ETS-2; also called globular pointed (PNT) domain from human ETS-2; PNT domain of ETS-2; source: expressed and purified as previously described (Dogan et al., 2015)
T2 sequence (looked up): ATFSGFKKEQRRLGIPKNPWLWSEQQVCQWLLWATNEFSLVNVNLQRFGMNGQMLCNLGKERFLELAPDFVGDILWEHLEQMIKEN
Conditions: both partners purified.

The target of a further test is T3, Hsa NCOA3 CID (ACTR) (human, UniProt Q9Y6Q9-3 1040-1081).
T3 construct: numbers count on: splice variant NCOA3-002 (ENST00000371997); pRSET vector; also called human NCOA3 CID; ACTR CID
T3 chain (looked up): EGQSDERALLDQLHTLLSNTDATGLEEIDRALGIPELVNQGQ
Conditions: both partners purified.

Test [4] has as its target Hsa NCOA2 CID (TIF2) (human). The source holds these as a separate data set.
The target of test [5] is Hsa NCOA1 CID (SRC1) (human). This is another data set of the same source.
Target sequence in this assay (Q15788 1040-1081): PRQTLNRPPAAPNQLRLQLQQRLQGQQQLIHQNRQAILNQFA
In test [6] the target is T4, Hsa ETS-2 PNT (human), P15036.
T4 chain: T2 sequence (looked up)

Residue numbers refer to the chain shown, from its start. Numbers in names are those of the source. Like-named read-outs stand apart in the source and are kept apart here.

T1 sequence (P04637 1-61): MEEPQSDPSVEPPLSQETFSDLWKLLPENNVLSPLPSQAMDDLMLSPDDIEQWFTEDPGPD
Chain of Hsa p53TAD (human) (P04637 1-61): as above

The term Kd denotes the constant that tells how readily two partners part at equilibrium. Lower therefore signals a tighter complex. Turning to Dmel NCBD (domain or fragment), the Kd is 37000 nM in test [1], 5200 nM in test [2] and 22000 nM in [3].

As to “Hsa CREBBP NCBD (from UniProt Q92793 2062-2109) (domain or fragment)”, the Kd in [2] stood at 330 nM; in test [3], 130 nM.

Turning to Pma NCBD (domain or fragment), the dissociation constant Kd with Hsa ETS-2 PNT (human) amounted to 1000 nM; in test [1], 230 nM; in [2], 190 nM; in [3], 44 nM.

In test [3], “Hsa CREBBP NCBD Y2108Q (from UniProt Q92793 2062-2109) (domain or fragment)” had an equilibrium dissociation constant (Kd) of 210 nM. This counts as sub-micromolar.

“Hsa CREBBP NCBD A2106Q/Y2108Q (from UniProt Q92793 2062-2109) (domain or fragment)” returned a Kd in test [3] of 220 nM. The Kd values of the last two molecules are within 1.5-fold of each other.

With Hsa p300 NCBD (domain or fragment), the Kd amounted to 1500 nM with Hsa ETS-2 PNT (human); 110 nM in test [1]; 180 nM in test [2]; 9200 nM with Hsa p53TAD (human); 71 nM in test [3].

As for “Hsa CREBBP NCBD A2106Q (from UniProt Q92793 2062-2109) (domain or fragment)”, the dissociation constant (Kd) in test [3] was found to be 100 nM.

B1: Hsa CREBBP NCBD (domain or fragment, human)
chain: GSISPSALQDLLRTLKSPSSPQQQQQVLNILKSNPQLMAAFIKQRTAKYV
notes: Gly-Ser left at the N-terminus from the expression construct; NCBD domain of human CREBBP; pRSET vector; also called human CREBBP NCBD
Regarding B1, the Kd with Hsa p53TAD is 84000 nM; in the test with Hsa ETS-2 PNT it was 760 nM; with Hsa NCOA3 CID (ACTR) it was 350 nM; with 1R CID, 380 nM.

B2: Dre CREBBP NCBD (domain or fragment)
chain: ITPGALQDLLRTLKSPSSPQQQQQVLNILKSNPHLMAAFIKQRTAKYQ
modifications: not checked
Take B2: the figures for the dissociation constant Kd (in test [4]; with Fish/Tetrapod NCOA3 CID; in [5]) were 230 nM, 570 nM and 290 nM, respectively.

B3: Fish/Tetrapod CREBBP NCBD (domain or fragment)
chain: B2 chain with T2P, G4N, H34Q
modifications: not checked
With B3, the Kd with Fish/Tetrapod NCOA3 CID turned out to be 410 nM; in test [6], 1300 nM.

B4: 1R/2R NCBD (domain or fragment)
chain: B2 chain with T2P, G4N, K14R, H34Q, T44A
modifications: not checked
With B4, the dissociation constant (Kd) with 1R CID S1078Q is 250 nM; in test [4] it was 45 nM; with 1R CID, 200 nM; with 1R CID S1058N, 220 nM; in test [6], 850 nM; in [5] it was 110 nM. In the test with 1R CID G1080S, this molecule yielded a Kd of 240 nM.

B5: 1R/2R NCBD N2065S (domain or fragment)
chain: B2 chain with T2P, G4S, K14R, H34Q, T44A
modifications: not checked
As for B5, in the test with 1R CID, the Kd came to 130 nM.

B6: 1R/2R NCBD N2065S K2107R (domain or fragment)
chain: B2 chain with T2P, G4S, K14R, H34Q, T44A, K46R
modifications: not checked
On to B6, for which the dissociation constant (Kd) was 170 nM with 1R CID and 130 nM in the test with 1R CID G1080S.
